Data on 94 variants can be found in the supplement of paper PMC10567573.

Sequences and labels used below:
B1: RIT1 (parent)
chain: FHALVREIRRKEKEAVLAMEKKSK
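Also: lentivirally expressed fusions sorted by FACS into six bins by GFP to DsRed ratio, PSI derived from sequencing read proportions per bin multiplied by bin number.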

Variants of B1 are the subject of this data set. Briefly: protein stability index of a GFP-peptide fusion (GPS, HEK-293T) (PSI 1-6); higher = more stable. The conditions noted are these: c terminus: a fixed tail appended.
For the variant FHALVREWRRKEKEAVLAMEKKSK, the protein stability index was determined as 2.35.
Consider FHALVRELRRKEKEAVLAMEKKSK, for which the protein stability index amounted to 1.65.
Regarding FHALVREPRRKEKEAVLAMEKKSK, the protein stability index came to 2.28.
With FHALVREVRRKEKEAVLAMEKKSK, the protein stability index came out at 1.78.
For the variant FHALVRERRRKEKEAVLAMEKKSK, the protein stability index amounted to 2.32.
As to FHALVREMRRKEKEAVLAMEKKSK, the protein stability index was found to be 2.32.
On to FHALVRECRRKEKEAVLAMEKKSK, for which the protein stability index amounted to 2.25.
As for FHALVREYRRKEKEAVLAMEKKSK, the figure is 2.01; as for FHALVREGRRKEKEAVLAMEKKSK, 2.23; as for FHALVREKRRKEKEAVLAMEKKSK, 2.31.
As for FHALVREQRRKEKEAVLAMEKKSK, the figure is 2.47.
For the variant FHALVREHRRKEKEAVLAMEKKSK, the protein stability index was found to be 2.14.
In the case of FHALVRENRRKEKEAVLAMEKKSK, the protein stability index was found to be 2.77.
FHALVRETRRKEKEAVLAMEKKSK: the protein stability index is 1.87.
FHALVREERRKEKEAVLAMEKKSK: the protein stability index was determined as 2.87.
As for FHALVREDRRKEKEAVLAMEKKSK, the figure is 3.15; as for FHALVREARRKEKEAVLAMEKKSK, 2.93.
For FHALVRESRRKEKEAVLAMEKKSK the value was 3.08; for FHALVREFRRKEKEAVLAMEKKSK, 2.34; for FHALVKEIRRKEKEAVLAMEKKSK, 1.43.
As for FHALVSEIRRKEKEAVLAMEKKSK, the protein stability index worked out at 2.06.
In the case of FHALVQEIRRKEKEAVLAMEKKSK, the protein stability index was 1.84.
With FHALVLEIRRKEKEAVLAMEKKSK, the protein stability index was 1.55.
In the case of FHALVCEIRRKEKEAVLAMEKKSK, the protein stability index was determined as 2.07.
As for FHALVFEIRRKEKEAVLAMEKKSK, the figure is 2.74; as for FHALVGEIRRKEKEAVLAMEKKSK, 1.76.
For FHALVVEIRRKEKEAVLAMEKKSK, the protein stability index worked out at 1.75.
For FHALVIEIRRKEKEAVLAMEKKSK, the protein stability index amounted to 2.22.
On to FHALVEEIRRKEKEAVLAMEKKSK, for which the protein stability index came to 1.55.
As for FHALVNEIRRKEKEAVLAMEKKSK, the protein stability index is 2.47.
As for FHALVAEIRRKEKEAVLAMEKKSK, the protein stability index amounted to 1.34.
On to FHALVHEIRRKEKEAVLAMEKKSK, for which the protein stability index is 1.42.
For FHALVWEIRRKEKEAVLAMEKKSK the value was 1.81; for FHALVTEIRRKEKEAVLAMEKKSK, 3.19.
For FHALVPEIRRKEKEAVLAMEKKSK the value was 1.81; for FHALVYEIRRKEKEAVLAMEKKSK, 1.73.
For FHALVDEIRRKEKEAVLAMEKKSK, the protein stability index amounted to 1.26.
Consider FHALVMEIRRKEKEAVLAMEKKSK, for which the protein stability index was 1.81.
Turning to AHALVREIRRKEKEAVLAMEKKSK, the protein stability index amounted to 3.95.
In the case of YHALVREIRRKEKEAVLAMEKKSK, the protein stability index turned out to be 1.92.
As for CHALVREIRRKEKEAVLAMEKKSK, the protein stability index was 3.53.
For NHALVREIRRKEKEAVLAMEKKSK the value was 4.67; for HHALVREIRRKEKEAVLAMEKKSK, 4.2; for RHALVREIRRKEKEAVLAMEKKSK, 4.48.
On to MHALVREIRRKEKEAVLAMEKKSK, for which the protein stability index stood at 3.69.
For the variant SHALVREIRRKEKEAVLAMEKKSK, the protein stability index was 4.14.
For the variant PHALVREIRRKEKEAVLAMEKKSK, the protein stability index is 4.61.
For WHALVREIRRKEKEAVLAMEKKSK the value was 2.43; for QHALVREIRRKEKEAVLAMEKKSK, 4.72.
In the case of DHALVREIRRKEKEAVLAMEKKSK, the protein stability index is 4.03.
As to GHALVREIRRKEKEAVLAMEKKSK, the protein stability index is 4.36.
Consider EHALVREIRRKEKEAVLAMEKKSK, for which the protein stability index was 5.2.
Turning to KHALVREIRRKEKEAVLAMEKKSK, the protein stability index was 4.06.
VHALVREIRRKEKEAVLAMEKKSK: the protein stability index stood at 3.04.
IHALVREIRRKEKEAVLAMEKKSK: the protein stability index is 2.93.
Take THALVREIRRKEKEAVLAMEKKSK: the protein stability index turned out to be 4.16.
Regarding LHALVREIRRKEKEAVLAMEKKSK, the protein stability index is 2.86.
As for FHALHREIRRKEKEAVLAMEKKSK, the figure is 1.97.
For FHALEREIRRKEKEAVLAMEKKSK the value was 2.65; for FHALCREIRRKEKEAVLAMEKKSK, 2.08; for FHALDREIRRKEKEAVLAMEKKSK, 2.85.
With FHALMREIRRKEKEAVLAMEKKSK, the protein stability index came out at 2.54.
Turning to FHALYREIRRKEKEAVLAMEKKSK, the protein stability index came out at 1.82.
For FHALLREIRRKEKEAVLAMEKKSK, the protein stability index stood at 2.01.
For the variant FHALNREIRRKEKEAVLAMEKKSK, the protein stability index was 1.8.
For FHALAREIRRKEKEAVLAMEKKSK the value was 1.46; for FHALQREIRRKEKEAVLAMEKKSK, 2.19.
As for FHALWREIRRKEKEAVLAMEKKSK, the figure is 1.77; as for FHALIREIRRKEKEAVLAMEKKSK, 2.56.
As for FHALPREIRRKEKEAVLAMEKKSK, the protein stability index amounted to 1.73.
On to FHALFREIRRKEKEAVLAMEKKSK, for which the protein stability index was 1.97.
In the case of FHALKREIRRKEKEAVLAMEKKSK, the protein stability index is 1.84.
For the variant FHALRREIRRKEKEAVLAMEKKSK, the protein stability index worked out at 2.27.
On to FHALSREIRRKEKEAVLAMEKKSK, for which the protein stability index worked out at 1.43.
Consider FHALGREIRRKEKEAVLAMEKKSK, for which the protein stability index amounted to 2.14.
For FHALTREIRRKEKEAVLAMEKKSK the value was 1.98; for FPALVREIRRKEKEAVLAMEKKSK, 3.35.
As to FIALVREIRRKEKEAVLAMEKKSK, the protein stability index came to 2.04.
With FRALVREIRRKEKEAVLAMEKKSK, the protein stability index is 3.02.
Turning to FTALVREIRRKEKEAVLAMEKKSK, the protein stability index turned out to be 2.55.
Consider FEALVREIRRKEKEAVLAMEKKSK, for which the protein stability index was determined as 3.37.
As for FKALVREIRRKEKEAVLAMEKKSK, the figure is 2.73; as for FYALVREIRRKEKEAVLAMEKKSK, 2.72.
As for FSALVREIRRKEKEAVLAMEKKSK, the protein stability index stood at 1.96.
As for FQALVREIRRKEKEAVLAMEKKSK, the figure is 2.95.
On to FGALVREIRRKEKEAVLAMEKKSK, for which the protein stability index was 2.83.
Regarding FNALVREIRRKEKEAVLAMEKKSK, the protein stability index came to 3.23.
Turning to FWALVREIRRKEKEAVLAMEKKSK, the protein stability index was 3.04.
For FDALVREIRRKEKEAVLAMEKKSK the value was 3.76; for FLALVREIRRKEKEAVLAMEKKSK, 2.61.
Consider FCALVREIRRKEKEAVLAMEKKSK, for which the protein stability index is 2.57.
FMALVREIRRKEKEAVLAMEKKSK: the protein stability index is 2.
As to FFALVREIRRKEKEAVLAMEKKSK, the protein stability index came to 2.73.
As for FAALVREIRRKEKEAVLAMEKKSK, the figure is 2.64.
